{"source": "patent US20240272170A1", "key": {"[1]": {"biological_target": "RLp… after cleavage to N-terminal leucine (Lp…)", "test": "on-chip dynamic sequencing of RLp[..] with PS691, PS610, PS961; one example trace, segment at about 20-52 min, BR=0.28"}, "[2]": {"biological_target": "… after cleavage to N-terminal leucine (…)", "test": "on-chip dynamic sequencing of [..] with PS691, PS610, PS961; one example trace, segment at about 113-128 min, BR=0.31"}, "[3]": {"biological_target": "EFIAWLV after cleavage to N-terminal leucine (LV)", "test": "on-chip dynamic sequencing of EFIAWLV, kinetic signature plot"}, "[4]": {"biological_target": "EFIAWLVK after cleavage to N-terminal leucine (LVK)", "test": "on-chip dynamic sequencing of the GLP-1 digest peptide EFIAWLVK, kinetic signature plot"}, "[5]": {"biological_target": "… after cleavage to N-terminal leucine (…)", "test": "single-molecule dynamic sequencing on chip"}, "[6]": {"biological_target": "RLp… after cleavage to N-terminal leucine (Lp…)", "test": "single-molecule dynamic sequencing on chip"}, "[7]": {"biological_target": "peptide with N-terminal LAA", "test": "single-molecule on-chip recognition of immobilized peptide, dye-labeled recognizer"}, "[8]": {"biological_target": "peptide with N-terminal IAA", "test": "single-molecule on-chip recognition of immobilized peptide, dye-labeled recognizer"}, "[9]": {"biological_target": "peptide with N-terminal VAA", "test": "single-molecule on-chip recognition of immobilized peptide, dye-labeled recognizer"}, "[10]": {"biological_target": "EFIAWLV after cleavage to N-terminal leucine (LV)", "test": "on-chip dynamic sequencing of EFIAWLV, example trace"}, "[11]": {"substrate": "I of … / RLp… (IAYPDDD)", "test": "on-chip dynamic sequencing of RLp[..] with PS691, PS610, PS961; one example trace, segment at about 143-155 min, BR=0.25"}, "[12]": {"substrate": "I of … / RLp… (IAYPDDD)", "test": "on-chip dynamic sequencing of [..] with PS691, PS610, PS961; one example trace, segment at about 247-277 min, BR=0.27"}, "[13]": {"biological_target": "T1, synthetic peptide …", "T1 sequence (peptide)": "RLAFSALGAADDD", "test": "on-chip dynamic sequencing of a mixture of … and … on one chip, signature of …"}, "[14]": {"biological_target": "T2, … after cleavage to N-terminal arginine (RLIFAG)", "T2 sequence (peptide, C-terminal azidolysine linked to DNA-streptavidin (p-0304))": "RLIFAG", "test": "on-chip dynamic sequencing of a mixture of … and … on one chip, signature of …"}, "[15]": {"biological_target": "peptide …", "test": "single-molecule dynamic sequencing on chip"}, "[16]": {"biological_target": "peptide RLp…", "test": "single-molecule dynamic sequencing on chip"}, "peptide RLMoFAYPDDD": {"biological_target": "T3, peptide RLMoFAYPDDD", "T3 sequence (peptide, M3 = methionine sulfoxide (Mo))": "RLMFAYPDDD", "test": "on-chip dynamic sequencing of RLMoFAYPDDD, example trace"}, "[17]": {"biological_target": "peptide …", "test": "on-chip dynamic sequencing of [..] with PS691, PS610, PS961; one example trace, segment at about 107-113 min, BR=0.46"}, "[18]": {"biological_target": "T2, … after cleavage to N-terminal arginine (RLIFAG)", "test": "on-chip dynamic sequencing of …, upper trace"}, "[19]": {"biological_target": "T1, synthetic peptide …", "test": "on-chip dynamic sequencing of …, example trace"}, "[20]": {"biological_target": "T4, synthetic peptide …", "T4 sequence (peptide)": "RLMFAYPDDD", "test": "on-chip dynamic sequencing of …, example trace", "remark": "listed apart in the source"}, "[21]": {"biological_target": "T5, synthetic peptide …", "T5 sequence (peptide)": "RLVFAYPDDD", "test": "on-chip dynamic sequencing of …, example trace", "remark": "listed apart in the source"}, "[22]": {"biological_target": "T2, … after cleavage to N-terminal arginine (RLIFAG)", "test": "on-chip dynamic sequencing of …, example trace"}, "[23]": {"biological_target": "T6, synthetic peptide …", "T6 sequence (peptide)": "RLAFAYPDDD", "test": "on-chip dynamic sequencing of …, example trace", "remark": "listed apart in the source"}, "[24]": {"biological_target": "T7, synthetic peptide …", "T7 sequence (peptide)": "RLIFAYPDDD", "test": "on-chip dynamic sequencing of …, example trace", "remark": "listed apart in the source"}, "[25]": {"biological_target": "T8, … after cleavage to N-terminal arginine (…)", "T8 sequence (peptide)": "RLAASFAAQQYPDDD", "test": "on-chip dynamic sequencing of …, example trace"}, "[26]": {"biological_target": "peptide RLp…", "test": "on-chip dynamic sequencing of RLp[..] with PS691, PS610, PS961; one example trace, segment at about 3-18 min, BR=0.43"}, "[27]": {"biological_target": "peptide with N-terminal RLA", "test": "single-molecule on-chip recognition of immobilized peptide, dye-labeled recognizer"}, "[28]": {"biological_target": "T9, RA peptide (X…-FITC, X = R)", "T9 sequence (peptide, FITC on the C-terminal Lys)": "RAKLDEESILKQK", "test": "fluorescence polarization titration, PS691 0-3000 nM"}, "[29]": {"biological_target": "T10, … after cleavage to N-terminal arginine (RLIFAGK)", "T10 sequence (peptide)": "RLIFAGK", "test": "on-chip dynamic sequencing of the ubiquitin digest peptide …, kinetic signature plot"}, "[30]": {"biological_target": "T2, … after cleavage to N-terminal arginine (RLIFAG)", "test": "on-chip dynamic sequencing of …, lower trace"}, "[31]": {"biological_target": "T1, synthetic peptide …", "test": "on-chip dynamic sequencing of …, kinetic signature plot"}, "[32]": {"biological_target": "T5, synthetic peptide …", "test": "on-chip dynamic sequencing of …, kinetic signature plot", "remark": "listed apart in the source"}, "[33]": {"biological_target": "T2, … after cleavage to N-terminal arginine (RLIFAG)", "test": "on-chip dynamic sequencing of …, kinetic signature plot"}, "[34]": {"biological_target": "T6, synthetic peptide …", "test": "on-chip dynamic sequencing of …, kinetic signature plot", "remark": "listed apart in the source"}, "[35]": {"biological_target": "T7, synthetic peptide …", "test": "on-chip dynamic sequencing of …, kinetic signature plot", "remark": "listed apart in the source"}, "[36]": {"biological_target": "T8, … after cleavage to N-terminal arginine (…)", "test": "on-chip dynamic sequencing of …, kinetic signature plot"}, "QP304-RAIFAG peptide": {"biological_target": "T11, QP304-RAIFAG peptide", "T11 sequence (peptide)": "RAIFAG", "test": "single-molecule on-chip recognition run"}, "[37]": {"biological_target": "T9, RA peptide (X…-FITC, X = R)", "test": "fluorescence polarization titration, recognizer 0-3000 nM, labeled peptide fixed"}, "[38]": {"biological_target": "RL Peptide (stopped-flow)", "test": "stopped-flow rapid kinetics"}, "[39]": {"biological_target": "HL Peptide (stopped-flow)", "test": "stopped-flow rapid kinetics"}, "[40]": {"biological_target": "RA Peptide (stopped-flow)", "test": "stopped-flow rapid kinetics"}}, "data": [{"binder": "PS961 (designed binder) MPTAASATESAIEDTPAPARPEVDGRTKPKRQPRYHVVLWDDDDHTYQYVVVMLRSLFGHPPSRGYRMAKEMDTQGRVIVLTTTREHAELKRDQIHAFGRDRLLARSKGSMKASIEAEE", "values": [{"measurement": "PW (pulse width of the segment in the example trace)", "setting": "[1]", "result": 3.57}, {"measurement": "PW (pulse width of the segment in the example trace)", "setting": "[2]", "result": 2.93}, {"measurement": "median PD (kinetic signature)", "setting": "[3]", "result": 5.3, "unit": "s"}, {"measurement": "median PD (kinetic signature)", "setting": "[4]", "result": 2.99, "unit": "s"}, {"measurement": "RS mean pulse duration (PD)", "setting": "[5]", "result": 2.45, "unit": "s"}, {"measurement": "RS mean pulse duration (PD)", "setting": "[6]", "result": 3.4, "unit": "s"}, {"measurement": "median pulse duration (PD)", "setting": "[7]", "result": 1.21, "unit": "s"}, {"measurement": "median pulse duration (PD)", "setting": "[8]", "result": 0.28, "unit": "s"}, {"measurement": "median pulse duration (PD)", "setting": "[9]", "result": 0.21, "unit": "s"}, {"measurement": "PD printed above the recognition segment (one trace)", "setting": "[10]", "result": 5.92, "unit": "s"}, {"measurement": "PW (pulse width of the segment in the example trace)", "setting": "[11]", "result": 0.24}, {"measurement": "PW (pulse width of the segment in the example trace)", "setting": "[12]", "result": 0.2}]}, {"binder": "PS691 (designed binder, from a related filing) MHSKFSHAGRICGAKFKVGEPIYRCKECSFDDTCVLCVNCFNPKDHTGHHVYTTICTEFNNGICDCGDKEAWNHTLFCKAEEGGSAGSAAGSGEFMHSKFSHAGRICGAKFKVGEPIYRCKECSFDDTCVLCVNCFNPKDHTGHHVYTTICTEFNNGICDCGDKEAWNHTLFCKAEEGGGSHHHHHHHHHHGGGSGGGSGGGSGLNDFFEAQKIEWHEGGGSGGGSGGGSGLNDFFEAQKIEWHE", "values": [{"measurement": "median PD (kinetic signature)", "setting": "[13]", "result": 0.21, "unit": "s"}, {"measurement": "median PD (kinetic signature)", "setting": "[14]", "result": 0.26, "unit": "s"}, {"measurement": "RS mean pulse duration (PD)", "setting": "[15]", "result": 0.9, "unit": "s"}, {"measurement": "RS mean pulse duration (PD)", "setting": "[16]", "result": 0.45, "unit": "s"}, {"measurement": "PD printed above the recognition segment (one trace)", "setting": "peptide RLMoFAYPDDD", "result": 0.25, "unit": "s"}, {"measurement": "PW (pulse width of the segment in the example trace)", "setting": "[17]", "result": 0.9}, {"measurement": "PD printed above the recognition segment (one trace)", "setting": "[18]", "result": 0.21, "unit": "s"}, {"measurement": "PD printed above the recognition segment (one trace)", "setting": "[19]", "result": 0.17, "unit": "s"}, {"measurement": "PD printed above the recognition segment (one trace)", "setting": "[20]", "result": 0.27, "unit": "s"}, {"measurement": "PD printed above the recognition segment (one trace)", "setting": "[21]", "result": 0.27, "unit": "s"}, {"measurement": "PD printed above the recognition segment (one trace)", "setting": "[22]", "result": 0.29, "unit": "s"}, {"measurement": "PD printed above the recognition segment (one trace)", "setting": "[23]", "result": 0.25, "unit": "s"}, {"measurement": "PD printed above the recognition segment (one trace)", "setting": "[24]", "result": 0.29, "unit": "s"}, {"measurement": "PD printed above the recognition segment (one trace)", "setting": "[25]", "result": 0.17, "unit": "s"}, {"measurement": "PW (pulse width of the segment in the example trace)", "setting": "[26]", "result": 0.54}, {"measurement": "median pulse duration (PD)", "setting": "[27]", "result": 0.23, "unit": "s"}, {"measurement": "Kd", "setting": "[28]", "result": 369, "unit": "nM"}, {"measurement": "median PD (kinetic signature)", "setting": "[29]", "result": 0.31, "unit": "s"}, {"measurement": "PD printed above the recognition segment (one trace)", "setting": "[30]", "result": 0.34, "unit": "s"}, {"measurement": "median PD (kinetic signature)", "setting": "[31]", "result": 0.19, "unit": "s"}, {"measurement": "median PD (kinetic signature)", "setting": "[32]", "result": 0.27, "unit": "s"}, {"measurement": "median PD (kinetic signature)", "setting": "[33]", "result": 0.24, "unit": "s"}, {"measurement": "median PD (kinetic signature)", "setting": "[34]", "result": 0.22, "unit": "s"}, {"measurement": "median PD (kinetic signature)", "setting": "[35]", "result": 0.29, "unit": "s"}, {"measurement": "median PD (kinetic signature)", "setting": "[36]", "result": 0.17, "unit": "s"}, {"measurement": "pulse duration", "setting": "QP304-RAIFAG peptide", "result": 0.16, "unit": "s"}, {"measurement": "Kd", "setting": "[37]", "result": 369, "unit": "nM"}, {"measurement": "koff", "setting": "[38]", "result": 19.7, "unit": "s⁻¹"}, {"measurement": "koff", "setting": "[39]", "result": 51.4, "unit": "s⁻¹"}, {"measurement": "koff", "setting": "[40]", "result": 69.4, "unit": "s⁻¹"}, {"measurement": "kon", "setting": "[40]", "result": "2.6e+07", "unit": "M⁻¹ s⁻¹"}]}]}
